The text below walks through data of patent publication US20250011363A1, “OPTIMIZED SHORTENED PEPTIDE THAT BINDS TO ACETYLCHOLINE RECEPTOR, AND USE THEREOF” (SKINMED CO., LTD., priority 2021, published 2025).

The test deals with acetylcholine receptor (Homo sapiens, UniProt P02708). The test can be described thus: SPR binding affinity (RU) of optimized 5mer/6mer/7mer peptides, Examples 6-7. The note with it: SPR, peptides tested at 10 μM. Here is the method:
Based on the frequencies of occurrence of the top 7 amino acids from Table 7 in Example 5, 600 peptides comprising these amino acids (top combinations) and those comprising the 13 less frequently occurring amino acids (bottom combinations) were synthesized for each series of 5mer, 6mer-1, and 6mer-2. The binding affinity of each sequence for the acetylcholine receptor was measured using Surface Plasmon Resonance (SPR) analysis method. The peptides were tested at a concentration of 10 μM. Additionally, the average binding affinities of the top and bottom combinations in each series are depicted in FIGS. 5-7.
Representative peptides identified in Example 6, two in each library, including 5mers (73, 311) and 6mers-1 (43, 210) and 6mers-2 (136, 233), were compared with the pre-optimized 6mer, 5mer-ND, and Synake.
On the technique in general: Surface plasmon resonance follows binding to a sensor surface in real time, without labels.

Setting [1] is: 5mer Top sequence (top combinations).

Sequence of acetylcholine receptor (P02708 21-457): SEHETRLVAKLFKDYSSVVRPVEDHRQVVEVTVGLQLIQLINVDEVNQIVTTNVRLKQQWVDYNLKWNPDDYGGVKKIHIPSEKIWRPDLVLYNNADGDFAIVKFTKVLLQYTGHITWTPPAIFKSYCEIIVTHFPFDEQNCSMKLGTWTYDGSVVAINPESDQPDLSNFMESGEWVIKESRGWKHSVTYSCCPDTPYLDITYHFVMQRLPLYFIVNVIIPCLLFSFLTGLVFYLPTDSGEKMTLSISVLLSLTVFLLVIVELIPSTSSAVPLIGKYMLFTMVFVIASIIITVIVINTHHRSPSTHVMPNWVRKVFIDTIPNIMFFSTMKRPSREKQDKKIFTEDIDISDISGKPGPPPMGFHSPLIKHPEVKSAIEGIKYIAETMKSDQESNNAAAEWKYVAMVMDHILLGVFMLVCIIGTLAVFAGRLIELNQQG

Take 5mer-277 (RVFTR): the Binding affinity under setting [1] is on record as 82 Ru.

Take 5mer-278 (RWQRR): the Binding affinity under setting [1] is listed as 66 Ru.

For the substance 5mer-279 (RVVTK), the Binding affinity under setting [1] was determined as 56 Ru.

Take 5mer-280 (KWILK): the Binding affinity under setting [1] was determined as 53 Ru.

5mer-281 (RGFLK): under setting [1], the Binding affinity is reported as 58 Ru.

With 5mer-282 (RVLTR), the Binding affinity under setting [1] came to 77 Ru.

As to 5mer-283 (KWVYK), under setting [1], the Binding affinity turned out to be 51 Ru.

Turning to 5mer-284 (KQVQR), the Binding affinity under setting [1] is 52 Ru.

Consider 5mer-285 (KGQLK), for which the Binding affinity under setting [1] is given as 75 Ru.

Consider 5mer-286 (RWFQK), for which, under setting [1], the Binding affinity is on record as 71 Ru.

Consider 5mer-287 (KRYRR), for which, under setting [1], the Binding affinity is reported as 68 Ru.

Regarding 5mer-288 (KLILK), the Binding affinity under setting [1] is given as 73 Ru.

5mer-289 (RRQYR): the Binding affinity under setting [1] is 87 Ru.

For the substance 5mer-290 (RGYYR), under setting [1], the Binding affinity is 57 Ru.

In the case of 5mer-291 (RWFTR), the Binding affinity under setting [1] was determined as 72 Ru.

Regarding 5mer-292 (KLVCK), the Binding affinity under setting [1] amounted to 59 Ru.

Regarding 5mer-293 (RQYYR), the Binding affinity under setting [1] was determined as 83 Ru.

Consider 5mer-294 (KQYYK), for which the Binding affinity under setting [1] was determined as 50 Ru.

Regarding 5mer-295 (RGRCR), the Binding affinity under setting [1] was 52 Ru.

As for 5mer-296 (KWISK), the Binding affinity under setting [1] is given as 55 Ru.

For the substance 5mer-297 (RSLRK), the Binding affinity under setting [1] turned out to be 81 Ru.

As for 5mer-298 (KSIYR), the Binding affinity under setting [1] worked out at 75 Ru.

Regarding 5mer-299 (KGRRK), the Binding affinity under setting [1] stood at 62 Ru.

As for 5mer-300 (RQYRK), the Binding affinity under setting [1] is given as 81 Ru.

As for 5mer-301 (KWIRK), the Binding affinity (5mer Top sequence) was 64 Ru.

Regarding 5mer-302 (RRILK), for the setting “5mer Top sequence”, the Binding affinity came to 70 Ru.

On to 5mer-303 (KGRYR), for which, where the note is “5mer Top sequence”, the Binding affinity is 87 Ru.

With 5mer-304 (RSVRK), the Binding affinity (5mer Top sequence) is listed as 76 Ru.

On to 5mer-305 (KRICK), for which, for the setting “5mer Top sequence”, the Binding affinity stood at 72 Ru.

Turning to 5mer-306 (KSYYR), the Binding affinity (5mer Top sequence) was 74 Ru.

On to 5mer-307 (KQRCK), for which, for the setting “5mer Top sequence”, the Binding affinity is on record as 82 Ru.

For the substance 5mer-308 (RLRCR), the Binding affinity (5mer Top sequence) stood at 84 Ru.

Turning to 5mer-309 (KVQYR), the Binding affinity (5mer Top sequence) was 70 Ru.

Regarding 5mer-310 (KSRQR), the Binding affinity (5mer Top sequence) turned out to be 78 Ru.

Regarding 5mer-312 (KRYCR), the Binding affinity (5mer Top sequence) is 81 Ru.

On to 5mer-313 (RSQLK), for which the Binding affinity (5mer Top sequence) amounted to 75 Ru.

For the substance 5mer-314 (RWYTR), the Binding affinity (5mer Top sequence) came out at 80 Ru.

Consider 5mer-315 (KLFSR), for which the Binding affinity (5mer Top sequence) turned out to be 77 Ru.

On to 5mer-316 (KQYLR), for which, where the note is “5mer Top sequence”, the Binding affinity was 73 Ru.

With 5mer-317 (RRVQR), the Binding affinity (5mer Top sequence) was determined as 86 Ru.

With 5mer-318 (KRVCK), the Binding affinity (5mer Top sequence) is 64 Ru.

Regarding 5mer-319 (RVQTR), the Binding affinity (5mer Top sequence) worked out at 74 Ru.

On to 5mer-320 (RVVQR), for which, under “5mer Top sequence”, the Binding affinity was determined as 75 Ru.

Consider 5mer-321 (RSLSR), for which, where the note is “5mer Top sequence”, the Binding affinity was 68 Ru.

As to 5mer-322 (RRQSR), the Binding affinity (5mer Top sequence) was 84 Ru.

Regarding 5mer-323 (KWYYR), the Binding affinity (5mer Top sequence) turned out to be 77 Ru.

Regarding 5mer-324 (KSQRR), the Binding affinity (5mer Top sequence) was 58 Ru.

In the case of 5mer-325 (KRIQR), where the note is “5mer Top sequence”, the Binding affinity amounted to 50 Ru.

As for 5mer-326 (RRFTK), the Binding affinity (5mer Top sequence) was found to be 68 Ru.

Regarding 5mer-327 (RVLCR), under “5mer Top sequence”, the Binding affinity is on record as 86 Ru.

Turning to 5mer-328 (RWVLK), where the note is “5mer Top sequence”, the Binding affinity was 61 Ru.

For 5mer-329 (RRFCR), the Binding affinity (5mer Top sequence) turned out to be 79 Ru.

For the substance 5mer-330 (RWQLR), for the setting “5mer Top sequence”, the Binding affinity amounted to 86 Ru.

With 5mer-331 (RGIQR), the Binding affinity (5mer Top sequence) was determined as 79 Ru.

With 5mer-332 (RRYCR), the Binding affinity (5mer Top sequence) came out at 85 Ru.

In the case of 5mer-333 (RVLQR), the Binding affinity (5mer Top sequence) amounted to 67 Ru.

For 5mer-334 (KRFYK), for the setting “5mer Top sequence”, the Binding affinity amounted to 64 Ru.

As to 5mer-335 (KSLTR), the Binding affinity (5mer Top sequence) is listed as 56 Ru.

For 5mer-336 (KSVSR), under “5mer Top sequence”, the Binding affinity stood at 83 Ru.

As for 5mer-337 (KGRSR), the Binding affinity (5mer Top sequence) is listed as 67 Ru.

Take 5mer-338 (RWILR): for the setting “5mer Top sequence”, the Binding affinity was found to be 61 Ru.

As to 5mer-339 (KWVRK), the Binding affinity (5mer Top sequence) is on record as 87 Ru.

On to 5mer-340 (KGYRR), for which, for the setting “5mer Top sequence”, the Binding affinity is recorded as 51 Ru.

Take 5mer-341 (RWYRR): under “5mer Top sequence”, the Binding affinity was determined as 52 Ru.

As for 5mer-342 (KVYQR), for the setting “5mer Top sequence”, the Binding affinity came out at 69 Ru.

For the substance 5mer-343 (KSFSR), the Binding affinity (5mer Top sequence) stood at 60 Ru.

Turning to 5mer-344 (KQFQR), for the setting “5mer Top sequence”, the Binding affinity is listed as 52 Ru.

Turning to 5mer-345 (RQQRR), the Binding affinity (5mer Top sequence) came to 86 Ru.

As to 5mer-346 (KGISK), where the note is “5mer Top sequence”, the Binding affinity was determined as 57 Ru.

Take 5mer-347 (KRICR): the Binding affinity (5mer Top sequence) was 78 Ru.

Consider 5mer-348 (KRQTK), for which the Binding affinity (5mer Top sequence) is listed as 80 Ru.

Turning to 5mer-349 (KQVYR), for the setting “5mer Top sequence”, the Binding affinity came to 50 Ru.

On to 5mer-350 (KSYYK), for which, under “5mer Top sequence”, the Binding affinity was 59 Ru.

5mer-351 (KSFSK): under “5mer Top sequence”, the Binding affinity is 75 Ru.

On to 5mer-352 (RLVRK), for which the Binding affinity (5mer Top sequence) is 76 Ru.

5mer-353 (KSQLK): the Binding affinity (5mer Top sequence) was 59 Ru.

On to 5mer-354 (RSQTR), for which the Binding affinity (5mer Top sequence) is 64 Ru.

5mer-355 (KLLYR): the Binding affinity (5mer Top sequence) amounted to 87 Ru.

Consider 5mer-356 (KQVLR), for which the Binding affinity (5mer Top sequence) was 65 Ru.

Turning to 5mer-357 (RGFRK), the Binding affinity (5mer Top sequence) is listed as 54 Ru.

With 5mer-358 (KVRSK), the Binding affinity (5mer Top sequence) came to 50 Ru.

Consider 5mer-359 (KRFQK), for which the Binding affinity (5mer Top sequence) came out at 79 Ru.

For 5mer-360 (RQLCK), where the note is “5mer Top sequence”, the Binding affinity is on record as 66 Ru.

Consider 5mer-361 (RSYQR), for which the Binding affinity (5mer Top sequence) worked out at 58 Ru.

As for 5mer-362 (KQRLK), the Binding affinity (5mer Top sequence) is on record as 62 Ru.

Consider 5mer-363 (KRVRK), for which the Binding affinity (5mer Top sequence) came out at 59 Ru.

As to 5mer-364 (RWITR), the Binding affinity (5mer Top sequence) is on record as 62 Ru.

Take 5mer-365 (KRRYK): where the note is “5mer Top sequence”, the Binding affinity came out at 52 Ru.

Take 5mer-366 (RQLQK): where the note is “5mer Top sequence”, the Binding affinity is 52 Ru.

With 5mer-367 (RSVQK), the Binding affinity (5mer Top sequence) worked out at 71 Ru.

5mer-368 (KRIRR): under “5mer Top sequence”, the Binding affinity was 50 Ru.

Consider 5mer-369 (RGFTR), for which the Binding affinity (5mer Top sequence) is on record as 84 Ru.

With 5mer-370 (KWRRK), the Binding affinity (5mer Top sequence) was found to be 67 Ru.

With 5mer-371 (RGISK), the Binding affinity (5mer Top sequence) was 86 Ru.

Take 5mer-372 (RSVCR): where the note is “5mer Top sequence”, the Binding affinity was 54 Ru.

Regarding 5mer-373 (KVFTK), under “5mer Top sequence”, the Binding affinity came to 87 Ru.

As to 5mer-374 (KLFTR), the Binding affinity (5mer Top sequence) amounted to 75 Ru.

For 5mer-375 (KQLCR), the Binding affinity (5mer Top sequence) is listed as 84 Ru.

Regarding 5mer-376 (KGQLR), the Binding affinity (5mer Top sequence) is 65 Ru.

Take 5mer-377 (KGFYK): under “5mer Top sequence”, the Binding affinity turned out to be 67 Ru.

In the case of 5mer-378 (RRLSK), where the note is “5mer Top sequence”, the Binding affinity turned out to be 65 Ru.

Regarding 5mer-379 (KSRLR), the Binding affinity (5mer Top sequence) is reported as 79 Ru.

Take 5mer-380 (KRYLK): the Binding affinity (5mer Top sequence) was 82 Ru.

As for 5mer-381 (KGQRR), the Binding affinity (5mer Top sequence) turned out to be 87 Ru.
